Assay results published in publication PMC7878818.
Values belong to the substance of their own block, whether it stands above or below them.

Assays:
[1] = molecular target: Spindlin1/C11orf84 complex (human) (UniProt Q9BUA3); assay: ITC; 25 °C, MicroCal ITC200; 20 mM HEPES pH 7.5, 150 mM NaCl; 0.8 mM H3 peptide injected into 50 μM protein or complex in the sample cell
[2] = molecular target: Spindlin1 (aa: 50–262) (human) (UniProt Q9Y657); assay: ITC; 25 °C, MicroCal ITC200; 20 mM HEPES pH 7.5, 150 mM NaCl; 50 μM Spindlin1 or Spindlin1/C11orf84 complex in the cell, 0.8 mM peptide injected
[3] = molecular target: Spindlin1 F141A/C11orf84 complex (human) (UniProt Q9Y657); assay: as above
Target sequence in this assay (Q9Y657 50-262 F141A, chain 1 of 2): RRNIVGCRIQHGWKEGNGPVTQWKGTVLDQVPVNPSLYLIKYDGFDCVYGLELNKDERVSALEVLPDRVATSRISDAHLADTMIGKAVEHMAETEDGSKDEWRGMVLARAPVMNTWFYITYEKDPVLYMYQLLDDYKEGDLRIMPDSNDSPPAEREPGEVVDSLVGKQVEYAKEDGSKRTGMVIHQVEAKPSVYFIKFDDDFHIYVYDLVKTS
Target sequence in this assay (Q9BUA3 whole entry, chain 2 of 2, further chain): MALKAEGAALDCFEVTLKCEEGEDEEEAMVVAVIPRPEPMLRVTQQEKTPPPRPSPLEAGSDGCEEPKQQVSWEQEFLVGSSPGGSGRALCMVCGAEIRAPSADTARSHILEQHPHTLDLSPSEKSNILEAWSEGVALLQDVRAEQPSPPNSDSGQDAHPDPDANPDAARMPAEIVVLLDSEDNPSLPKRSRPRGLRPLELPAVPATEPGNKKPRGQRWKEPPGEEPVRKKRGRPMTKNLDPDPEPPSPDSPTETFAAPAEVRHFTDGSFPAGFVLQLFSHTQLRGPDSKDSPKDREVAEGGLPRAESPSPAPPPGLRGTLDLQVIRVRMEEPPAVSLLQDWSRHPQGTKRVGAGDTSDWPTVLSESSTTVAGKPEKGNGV

[4] = molecular target: Spindlin1 W62A/C11orf84 complex (human) (UniProt Q9Y657); assay: as above
Target sequence in this assay (Q9Y657 50-262 W62A, chain 1 of 2): as the sequence (Q9Y657 50-262 F141A, chain 1 of 2) above, with W13A, A92F counted along it
Target sequence in this assay (Q9BUA3 whole entry, chain 2 of 2, further chain): as the sequence (Q9BUA3 whole entry, chain 2 of 2, further chain) above

[5] = molecular target: Spindlin1 W62A/W72A/C11orf84 complex (human) (UniProt Q9Y657); assay: as above
Target sequence in this assay (Q9Y657 50-262 W62A/W72A, chain 1 of 2): as the sequence (Q9Y657 50-262 F141A, chain 1 of 2) above, with W13A, W23A, A92F counted along it
Target sequence in this assay (Q9BUA3 whole entry, chain 2 of 2, further chain): as the sequence (Q9BUA3 whole entry, chain 2 of 2, further chain) above

[6] = molecular target: Spindlin1 W72A/C11orf84 complex (human) (UniProt Q9Y657); assay: as above
Target sequence in this assay (Q9Y657 50-262 W72A, chain 1 of 2): as the sequence (Q9Y657 50-262 F141A, chain 1 of 2) above, with W23A, A92F counted along it
Target sequence in this assay (Q9BUA3 whole entry, chain 2 of 2, further chain): as the sequence (Q9BUA3 whole entry, chain 2 of 2, further chain) above

[7] = molecular target: Spindlin1 Y91A/C11orf84 complex (human) (UniProt Q9Y657); assay: as above
Target sequence in this assay (Q9Y657 50-262 Y91A, chain 1 of 2): as the sequence (Q9Y657 50-262 F141A, chain 1 of 2) above, with Y42A, A92F counted along it
Target sequence in this assay (Q9BUA3 whole entry, chain 2 of 2, further chain): as the sequence (Q9BUA3 whole entry, chain 2 of 2, further chain) above

[8] = molecular target: Spindlin1 Y98A/C11orf84 complex (human) (UniProt Q9Y657); assay: as above
Target sequence in this assay (Q9Y657 50-262 Y98A, chain 1 of 2): as the sequence (Q9Y657 50-262 F141A, chain 1 of 2) above, with Y49A, A92F counted along it
Target sequence in this assay (Q9BUA3 whole entry, chain 2 of 2, further chain): as the sequence (Q9BUA3 whole entry, chain 2 of 2, further chain) above

[9] = molecular target: Spindlin1/C11orf84 complex (human) (UniProt Q9Y657); assay: as above
[10] = molecular target: Spindlin1 D173A/C11orf84 complex (human) (UniProt Q9Y657); assay: ITC; 25 °C, MicroCal ITC200; 20 mM HEPES pH 7.5, 150 mM NaCl; 0.8 mM H3 peptide injected into 50 μM protein or complex in the sample cell
[11] = molecular target: Spindlin1 F141A/C11orf84 complex (human) (UniProt Q9Y657); assay: as above
[12] = molecular target: Spindlin1 W62A/C11orf84 complex (human) (UniProt Q9Y657); assay: as above
[13] = molecular target: Spindlin1 W62A/W72A/C11orf84 complex (human) (UniProt Q9Y657); assay: as above
[14] = molecular target: Spindlin1 W72A/C11orf84 complex (human) (UniProt Q9Y657); assay: as above
[15] = molecular target: Spindlin1 Y91A/C11orf84 complex (human) (UniProt Q9Y657); assay: as above
[16] = molecular target: Spindlin1 Y98A/C11orf84 complex (human) (UniProt Q9Y657); assay: as above

Spindlin1 (aa: 50–262) (human), sequence (Q9Y657 50-262): as the sequence (Q9Y657 50-262 F141A, chain 1 of 2) above, with A92F counted along it

- Kd [1]: 0.042 µM
- stoichiometry N [1]: 1.01
Substance: H3K4me3K9me2 peptide, H3 (1-12)

- Kd [1]: 2.88 µM
- stoichiometry N [1]: 1.02
Substance: H3K9me3 peptide, H3 (1-12)

The remaining lines, values behind:

Substance: H3K4me3 peptide, H3 (1-12)
- Kd [1]: 0.213 µM
- stoichiometry N [1]: 1.01

Substance: H3K4me3K9me3 peptide
- Kd [2]: 0.046 µM
- fold reduction in binding affinity against wild type [3]: 40 fold
- fold reduction in binding affinity against wild type [4]: 3 fold
- fold reduction in binding affinity against wild type [5]: 10 fold
- fold reduction in binding affinity against wild type [6]: 3 fold
- fold reduction in binding affinity against wild type [7]: 3 fold
- fold reduction in binding affinity against wild type [8]: 3 fold
- Kd [9]: 0.02 µM

Substance: H3K4me3K9me3 peptide, H3 (1-12)
- stoichiometry N [10]: 1.04
- stoichiometry N [11]: 1.03
- stoichiometry N [12]: 1.06
- stoichiometry N [13]: 1
- stoichiometry N [14]: 1.07
- stoichiometry N [15]: 1.07
- stoichiometry N [16]: 1.07
- stoichiometry N [1]: 1.02

Substance: H3K4me3R8me2a peptide, H3 (1-12)
- Kd [1]: 0.082 µM
- stoichiometry N [1]: 1.04
